Several values for one entry are separate records, joined by “and”; a condition that tells them apart may be missing. Equal values may be shown once. Read-outs that look alike come from different tables or passages of the source. Where a SMILES comes first, the peptide text is derived from it. Where no end group is shown, it is not given here. [ ]: non-standard residue; d: D form. Hyp = O=C(O)[C@@H]1C[C@@H](O)CN1
T1: CTR ECD (Homo sapiens, UniProt P30988)
T1 construct: pHLsec/hCTR.34–141-H6 (H-pSL003); H6 (His6) (C); made in house; host or cells: HEK293T
T1 sequence (P30988 34-141): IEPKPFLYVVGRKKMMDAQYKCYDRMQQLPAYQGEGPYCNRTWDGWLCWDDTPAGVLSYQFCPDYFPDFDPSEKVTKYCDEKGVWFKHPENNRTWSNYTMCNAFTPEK

T2: AMY receptor 3 ECD (RAMP3-CTR ECD fusion protein) (Homo sapiens, UniProt O60896+P30988)
T2 construct: pHLsec/hRAMP3.25–112-(GSA)3-hCTR.34–141-H6 (H-pSL001); H6 (His6) (C); made in house; host or cells: HEK293S GnTI−
T2 sequence (O60896+P30988 with tags, fused parts or gaps): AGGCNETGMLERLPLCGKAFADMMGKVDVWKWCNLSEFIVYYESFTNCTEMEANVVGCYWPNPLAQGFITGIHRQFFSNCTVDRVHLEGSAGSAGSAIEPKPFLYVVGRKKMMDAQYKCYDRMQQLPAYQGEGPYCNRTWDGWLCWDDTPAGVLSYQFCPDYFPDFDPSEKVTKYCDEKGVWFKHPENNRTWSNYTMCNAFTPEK

T3: calcitonin receptor extracellular domain (hCTR.34–141-H6) (human, UniProt P30988 34-141)
T3 construct: human calcitonin receptor (CTR), extracellular domain, residues 34-141; Secreted from a pHLsec-based vector; also called CTR ECD; purified CTR ECD; source: HEK293T, transiently transfected, secreted to cell culture media, purified (IMAC, SEC)
T3 sequence (looked up): T1 sequence (P30988 34-141)

T4: RAMP2-CTR ECD fusion protein (hRAMP2.55–140-(GSA)3-hCTR.34–141-H6) (human, UniProt O60895 55-140; P30988 34-141)
T4 construct: human receptor activity-modifying protein 2 (RAMP2), extracellular domain, residues 55-140; linker, printed as (GSA)3; human calcitonin receptor (CTR), extracellular domain, residues 34-141; Secreted from a pHLsec-based vector; also called AMY receptor 2 ECD; RAMP2 ECD-CTR ECD fusion; source: HEK293T, transiently transfected, secreted to cell culture media, purified (IMAC, SEC)
T4 chain: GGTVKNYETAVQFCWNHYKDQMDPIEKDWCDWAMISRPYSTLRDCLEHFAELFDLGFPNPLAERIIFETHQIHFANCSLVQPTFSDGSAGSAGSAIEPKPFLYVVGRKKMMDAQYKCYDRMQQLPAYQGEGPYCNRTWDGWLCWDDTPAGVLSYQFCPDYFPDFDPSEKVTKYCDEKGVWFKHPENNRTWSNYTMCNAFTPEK

T5: RAMP3-CTR ECD fusion protein (hRAMP3.25–112-(GSA)3-hCTR.34–141-H6) (human, UniProt O60896 25-112; P30988 34-141)
T5 construct: human receptor activity-modifying protein 3 (RAMP3), extracellular domain, residues 25-112; linker, printed as (GSA)3; human calcitonin receptor (CTR), extracellular domain, residues 34-141; Secreted from a pHLsec-based vector; also called AMY receptor 3 ECD; RAMP3 ECD-CTR ECD fusion protein; source: HEK293S GnTI-, transiently transfected (PEI), secreted to cell culture media, purified (IMAC, SEC)
T5 chain: T2 sequence (O60896+P30988 with tags, fused parts or gaps)

T6: RAMP1-CTR ECD fusion protein (hRAMP1.24–111-(GSA)3-hCTR.34–141-H6) (human, UniProt O60894 24-111; P30988 34-141)
T6 construct: human receptor activity-modifying protein 1 (RAMP1), extracellular domain, residues 24-111; linker, printed as (GSA)3; human calcitonin receptor (CTR), extracellular domain, residues 34-141; Secreted from a pHLsec-based vector; also called AMY receptor 1 ECD; RAMP1 ECD-CTR ECD fusion; source: HEK293T, transiently transfected, secreted to cell culture media, purified (IMAC, SEC)
T6 chain: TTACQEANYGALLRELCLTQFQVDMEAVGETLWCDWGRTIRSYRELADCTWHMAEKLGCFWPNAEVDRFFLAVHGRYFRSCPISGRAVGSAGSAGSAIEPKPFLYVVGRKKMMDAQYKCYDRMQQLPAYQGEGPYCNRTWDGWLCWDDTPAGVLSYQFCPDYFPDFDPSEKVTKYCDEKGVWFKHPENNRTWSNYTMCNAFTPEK

B1: sCT(22–32) (peptide)
peptide: YPRTNTGSGTP-NH2
notes: salmon calcitonin (sCT), residues 22-32; numbers count on: the mature 32-residue hormone; also called wild-type sCT(22–32); salmon calcitonin fragment 22–32; source: synthetic peptide (Genscript, HPLC-purified)
B2: sCT(22–32) N26D/S29P/P32HYP (peptide)
peptide: YPRTDTGPGT[Hyp]-NH2
notes: salmon calcitonin (sCT), residues 22-32, with N26D, S29P and P32HYP; numbers count on: the mature 32-residue hormone; Residue 32 is hydroxyproline, not plain proline; also called the mutated sCT(22–32); sCT(22–32) with the combined mutations (N26D, S29P, and P32HYP); source: synthetic peptide (Genscript, HPLC-purified)
B3: sCT(22–32) N26D/S29P (peptide)
peptide: YPRTDTGPGTP-NH2
notes: salmon calcitonin (sCT), residues 22-32, with N26D and S29P; numbers count on: the mature 32-residue hormone; source: synthetic peptide (Genscript, HPLC-purified)
B4: sCT(22–32) P32HYP (peptide)
peptide: YPRTNTGSGT[Hyp]-NH2
modifications: N-terminus assumed
SMILES: C[C@@H](O)[C@H](NC(=O)[C@H](CC(N)=O)NC(=O)[C@@H](NC(=O)[C@H](CCCNC(=N)N)NC(=O)[C@@H]1CCCN1C(=O)[C@@H](N)Cc1ccc(O)cc1)[C@@H](C)O)C(=O)NCC(=O)N[C@@H](CO)C(=O)NCC(=O)N[C@H](C(=O)N1C[C@H](O)C[C@H]1C(N)=O)[C@@H](C)O
notes: salmon calcitonin (sCT), residues 22-32, with P32HYP; numbers count on: the mature 32-residue hormone; Residue 32 is hydroxyproline, not plain proline; source: synthetic peptide (Genscript, HPLC-purified)

Tests used:
[1] = target: T1, CTR ECD; test: FP competition peptide binding assay with purified CTR ECD, FITC-sCT(22–32) probe; settings: CTR ECD 500 nM, FITC-sCT(22–32) 10 nM
From the text: (§1) The overall procedures of FP peptide binding assay with receptor ECDs and FITC-labeled peptide probes were previously described. […] A SpectraiD5 (Molecular Devices, San Jose, CA, USA) was used to measure fluorescence polarization/anisotropy. Background (reaction buffer only) was subtracted for anisotropy calculation. For the SpectraiD5, G factor (0.38 for FITC-sCT(22–32) and 0.41 for FITC-AC413(6–25) and FITC-AC413(6–25) Y25P) was used to correct the instrumental bias for anisotropy calculation. The polarization (mP) of the FITC-peptide probes only (No receptor ECD) was set close to 50 mP. For the saturation binding assay, the anisotropy values were re-calculated when total fluorescence intensity was changed by more than 10% as previously described. […] Anisotropy values were used to produce non-linear regression curves with PRISM 5.0 (GraphPad software, San Diego, CA, USA) as previously described. KI indicates affinity values obtained from competition binding assay and it was calculated from the non-linear regression curves of anisotropy by using equations previously described. Concentrations of the FITC-labeled peptide and the total receptor protein and the affinity of the FITC-labeled peptide for the receptor protein were incorporated into the equations for the KI calculation of the competitive peptide ligand. Two technical replicates were used for each receptor concentration in the peptide-binding curve. SEM of the anisotropy values of the two replicates at each receptor concentration were presented as error bars in the representative peptide-binding curves. When the error bars were shorter than the height of the symbol, they were omitted in the representative curves. At least three independent peptide binding experiments were performed to obtain three independent peptide-binding curves. Mean and standard deviation of peptide ligand affinity were calculated from them.

[2] = target: T7, AMY receptor 2 ECD (RAMP2-CTR ECD fusion protein) (Homo sapiens, UniProt O60895+P30988); test: FP competition peptide binding assay with AMY receptor 2 ECD, FITC-AC413(6–25) Y25P probe; settings: Figure 5f; RAMP2-CTR ECD fusion protein 67 nM, FITC-AC413(6–25) Y25P 10 nM; mean ± SD of N = 3; read-out: pKI Mean ± SD (converted)
T7 construct: pHLsec/hRAMP2.55–140-(GSA)3-hCTR.34–141-H6 (H-pSL006); H6 (His6) (C); made in house; host or cells: HEK293T
From the text: as §1

[3] = target: T2, AMY receptor 3 ECD (RAMP3-CTR ECD fusion protein); test: FP competition peptide binding assay with AMY receptor 3 ECD, FITC-AC413(6–25) Y25P probe; settings: Figure 5g; RAMP3-CTR ECD fusion protein 252 nM, FITC-AC413(6–25) Y25P 10 nM; mean ± SD of N = 3; read-out: pKI Mean ± SD (converted)
From the text: as §1

[4] = target: T8, AMY receptor 1 ECD (RAMP1-CTR ECD fusion protein) (Homo sapiens, UniProt O60894+P30988); test: FP competition peptide binding assay with AMY receptor 1 ECD, FITC-AC413(6–25) Y25P probe; settings: Figure 5e; RAMP1-CTR ECD fusion protein 77 nM, FITC-AC413(6–25) Y25P 10 nM; mean ± SD of N = 3; read-out: pKI Mean ± SD (converted)
T8 construct: pHLsec/hRAMP1.24–111-(GSA)3-hCTR.34–141-H6 (H-pSL005); H6 (His6) (C); made in house; host or cells: HEK293T
From the text: as §1

[5] = target: T3, calcitonin receptor extracellular …; test: fluorescence polarisation; competition binding, full curves: FITC-sCT(22–32) probe 10 nM, CTR ECD 500 nM, competitive peptide at multiple concentrations, all in solution; KI from non-linear regression of anisotropy; settings: both partners purified
[6] = target: T4, RAMP2-CTR ECD fusion protein …; test: fluorescence polarisation; competition binding, full curves: FITC-AC413(6–25) Y25P probe 10 nM, RAMP1-CTR ECD 77 nM, RAMP2-CTR ECD 67 nM or RAMP3-CTR ECD 252 nM, competitive peptide at multiple concentrations, all in solution; KI from non-linear regression of anisotropy; settings: both partners purified
[7] = target: T5, RAMP3-CTR ECD fusion protein …; test: as above; settings: both partners purified
[8] = target: T6, RAMP1-CTR ECD fusion protein …; test: as above; settings: both partners purified
[9] = Figure 1d experiment set, mean ± SD of N = 3 independent experiments, pKI = –log10[KI] (M)
[10] = Figure 4b experiment set, mean ± SD of N = 3 (N = 4 for sCT(22–32)) independent experiments, read-out: pKI Mean ± SD (converted)

| Molecule | Ki ([1]; Figure 3b experiment set, mean ± SD of N = 3 independent experiments, read-out: pKI Mean ± SD (converted)) | Ki [1, 9] | Ki [2] | Ki [3] | Ki [4] | Ki [1, 10] | Ki [5] | pKI [5] | Ki [6] | pKI [6] | Ki [7] | pKI [7] | Ki [8] | pKI [8] |
| --- | --- | --- | --- | --- | --- | --- | --- | --- | --- | --- | --- | --- | --- | --- |
| YPRTDTGPGTP-NH2 [sCT(22–32) N26D/S29P] | 2.4e-07 M | 3.16e-07 M | 0.468 µM | 0.331 µM | 0.38 µM | – | – | – | – | – | – | – | – | – |
| YPRTNTGSGTP-NH2 [sCT(22–32), reference compound] | – | 1.78e-06 M | 2.82 µM | 2.57 µM | 2.57 µM | 2.04e-06 M | – | – | – | – | – | – | – | – |
| C[C@@H](O)[C@H](NC(=O)[C@H](CC(=O)O)NC(=O)[C@@H](NC(=O)[C@H](CCCNC(=N)N)NC(=O)[C@@H]1CCCN1C(=O)[C@@H](N)Cc1ccc(O)cc1)[C@@H](C)O)C(=O)NCC(=O)N1CCC[C@H]1C(=O)NCC(=O)N[C@H](C(=O)N1C[C@H](O)C[C@H]1C(N)=O)[C@@H](C)O [sCT(22–32) N26D/S29P/P32HYP] (H-YPRTDTGPGT[Hyp]-NH2) | – | – | 0.339 µM | 0.117 µM | 0.123 µM | 9.55e-08 M | – | – | – | – | – | – | – | – |
| C[C@@H](O)[C@H](NC(=O)[C@H](CC(N)=O)NC(=O)[C@@H](NC(=O)[C@H](CCCNC(=N)N)NC(=O)[C@@H]1CCCN1C(=O)[C@@H](N)Cc1ccc(O)cc1)[C@@H](C)O)C(=O)NCC(=O)N[C@@H](CO)C(=O)NCC(=O)N[C@H](C(=O)N1C[C@H](O)C[C@H]1C(N)=O)[C@@H](C)O [sCT(22–32) P32HYP] (H-YPRTNTGSGT[Hyp]-NH2) | – | – | 1.41 µM | 1 µM | 0.891 µM | 8.91e-07 M | – | – | – | – | – | – | – | – |
| B1 | – | – | – | – | – | – | 2.03 µM and 1.76 µM | 5.75 -log10(M) and 5.69 -log10(M) | 2.8 µM | 5.55 -log10(M) | 2.56 µM | 5.59 -log10(M) | 2.55 µM | 5.59 -log10(M) |
| B2 | – | – | – | – | – | – | 0.095 µM | 7.02 -log10(M) | 0.34 µM | 6.47 -log10(M) | 0.118 µM | 6.93 -log10(M) | 0.124 µM | 6.91 -log10(M) |
| B3 | – | – | – | – | – | – | 0.239 µM and 0.314 µM | 6.62 -log10(M) and 6.5 -log10(M) | 0.47 µM | 6.33 -log10(M) | 0.333 µM | 6.48 -log10(M) | 0.381 µM | 6.42 -log10(M) |
| B4 | – | – | – | – | – | – | 0.887 µM | 6.05 -log10(M) | 1.43 µM | 5.85 -log10(M) | 0.995 µM | 6 -log10(M) | 0.887 µM | 6.05 -log10(M) |
